Results reported in US20040054131A1.

Target: FGF receptor (FGFR) on Swiss 3T3 cells
Experiment: cell-based or functional assay

basic FGF (ligand)
EC50 of mitogenesis (BrdU incorporation) in Swiss 3T3 cells with 15 U/ml heparin: 0.14 nM
